Measurements published in paper PMC2175346.

T1: I-PpoI (Physarum polycephalum, UniProt Q94702 1-163)
T1 sequence: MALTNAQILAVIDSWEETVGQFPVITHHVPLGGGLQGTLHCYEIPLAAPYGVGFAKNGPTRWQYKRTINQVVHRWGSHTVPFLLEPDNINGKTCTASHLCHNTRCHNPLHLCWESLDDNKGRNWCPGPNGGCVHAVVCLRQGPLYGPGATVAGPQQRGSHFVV

T2: I-AniI (Aspergillus nidulans, UniProt P03880 237-488)
T2 sequence: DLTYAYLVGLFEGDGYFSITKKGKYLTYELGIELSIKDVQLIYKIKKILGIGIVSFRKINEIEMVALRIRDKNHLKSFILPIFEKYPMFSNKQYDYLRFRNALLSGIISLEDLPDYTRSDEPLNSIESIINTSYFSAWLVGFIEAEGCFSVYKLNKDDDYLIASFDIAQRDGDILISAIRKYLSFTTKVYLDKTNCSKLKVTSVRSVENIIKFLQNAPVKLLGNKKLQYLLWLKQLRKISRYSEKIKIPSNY


What was measured:
I-PpoI = molecular target: T1, I-PpoI; assay: ITC
I-AniI = molecular target: T2, I-AniI; assay: ITC

Binder | Kd (I-PpoI) | Kd (I-AniI)
I-PpoI LL palindrome (dsDNA) DNA 1: GGGGGTGCAGTGACTCTCTTAAGAGAGTCAGACGTGGGGG DNA 2: CCCCCACGTCTGACTCTCTTAAGAGAGTCACTGCACCCCC | 87 ± 8.8 nM | –
I-AniI WT site (dsDNA) DNA 1: CCTTCCCTGAGGAGGTTTCTCTGTAAACCCTTCC DNA 2: GGAAGGGTTTACAGAGAAACCTCCTCAGGGAAGG | – | 96 ± 10 nM
I-AniI WT-OPT site (dsDNA) DNA 1: CCTTCCCTGAGGAGGTTACTCTGTTAACCCTTCC DNA 2: GGAAGGGTTAACAGAGTAACCTCCTCAGGGAAGG | – | 8 ± 1 nM
I-PpoI RR palindrome (dsDNA) DNA 1: GGGGGTGCAGTGGCTACCTTAAGGTAGCCAGACGTGGGGG DNA 2: CCCCCACGTCTGGCTACCTTAAGGTAGCCACTGCACCCCC | 23 ± 1.6 nM | –
